Biological target: HLA-A*02:01 (Homo sapiens, UniProt P04439, D140Y/D185E/D98H/E176V/E277Q/G131W/G231S/I119V/I121R/I166T/I218V/L300P/L318F/N151K/N90K/P208A/P217A/Q86G/Q94H/R138H/R169H/T345S)
Assay: MHC binding assay (UV-ligand exchange, β2m ELISA, peptide exchange yield)
Settings: MHC class I binding score; binding to HLA-A*02:01 ranged by peptide exchange yield (UV-ligand exchange, β2m ELISA)
From the text: Candidate peptides for T cell based therapies according to the present invention were further tested for their MHC binding capacity (affinity). The individual peptide-MHC complexes were produced by UV-ligand exchange, where a UV-sensitive peptide is cleaved upon UV-irradiation, and exchanged with the peptide of interest as analyzed. Only peptide candidates that can effectively bind and stabilize the peptide-receptive MHC molecules prevent dissociation of the MHC complexes. To determine the yield of the exchange reaction, an ELISA was performed based on the detection of the light chain (β2m) of stabilized MHC complexes. The assay was performed as generally described in Rodenko et al. (Rodenko et al., 2006).
96 well MAXISorp plates (NUNC) were coated over night with 2 ug/ml streptavidin in PBS at room temperature, washed 4× and blocked for 1h at 37° C. in 2% BSA containing blocking buffer. […] Peptide-MHC monomers of the UV-exchange reaction were diluted 100 fold in blocking buffer. Samples were incubated for 1h at 37° C., washed four times, incubated with 2 ug/ml HRP conjugated anti-β2m for 1h at 37° C., washed again and detected with TMB solution that is stopped with […]. Absorption was measured at 450 nm. Candidate peptides that show a high exchange yield (preferably higher than 50%, most preferred higher than 75%) are generally preferred for a generation and production of antibodies or fragments thereof, and/or T cell receptors or fragments thereof, as they show sufficient avidity to the MHC molecules and prevent dissociation of the MHC complexes.

Row | Substance | Peptide exchange
1 | 1 (SLMEPPAVLLL; listed as Homo sapiens) [compound 1] | ″+++″ (≧50% = +++)
2 | 4 (GIMEHITKI; listed as Homo sapiens) [compound 4] | ″++++″ (≧75% = ++++)
3 | 6 (VLVSDGVHSV; listed as Homo sapiens) [compound 6] | ″+++″ (≧50% = +++)
4 | 9 (GAAKDLPGV; listed as Homo sapiens) [compound 9] | ″++″ (≧20% = ++)
5 | 10 (FLATFPLAAV; listed as Homo sapiens) [compound 10] | ″++++″ (≧75% = ++++)
6 | 12 (SLWPDPMEV; listed as Homo sapiens) [compound 12] | ″+++″ (≧50% = +++)
7 | 13 (YLMDESLNL; listed as Homo sapiens) [compound 13] | ″+++″ (≧50% = +++)
8 | 14 (AAYGGLNEKSFV; listed as Homo sapiens) [compound 14] | ″+++″ (≧50% = +++)
9 | 15 (VLLTFKIFL; listed as Homo sapiens) [compound 15] | ″++″ (≧20% = ++)
10 | 16 (VLFQGQASL; listed as Homo sapiens) [compound 16] | ″+++″ (≧50% = +++)
11 | 18 (YLVAKLVEV; listed as Homo sapiens) [compound 18] | ″++″ (≧20% = ++)
12 | 20 (RMIEYFIDV; listed as Homo sapiens) [compound 20] | ″+++″ (≧50% = +++)
13 | 21 (VLDELDMEL; listed as Homo sapiens) [compound 21] | ″++″ (≧20% = ++)
14 | 22 (IMEENPGIFAV; listed as Homo sapiens) [compound 22] | ″+++″ (≧50% = +++)
15 | 23 (VLLDDIFAQL; listed as Homo sapiens) [compound 23] | ″+++″ (≧50% = +++)
16 | 24 (SLSDGLEEV; listed as Homo sapiens) [compound 24] | ″++″ (≧20% = ++)
17 | 25 (FLPDEPYIKV; listed as Homo sapiens) [compound 25] | ″+++″ (≧50% = +++)
18 | 26 (ALLELAEEL; listed as Homo sapiens) [compound 26] | ″+++″ (≧50% = +++)
19 | 27 (ILADIVISA; listed as Homo sapiens) [compound 27] | ″+++″ (≧50% = +++)
20 | 28 (QLLDETSAITL; listed as Homo sapiens) [compound 28] | ″+++″ (≧50% = +++)
21 | 29 (KMLGIPISNILMV; listed as Homo sapiens) [compound 29] | ″+++″ (≧50% = +++)
22 | 30 (LILDWVPYI; listed as Homo sapiens) [compound 30] | ″+++″ (≧50% = +++)
23 | 31 (YLAPELFVNV; listed as Homo sapiens) [compound 31] | ″++″ (≧20% = ++)
24 | 32 (KLDDLTQDLTV; listed as Homo sapiens) [compound 32] | ″++″ (≧20% = ++)
25 | 33 (VLLSLLEKV; listed as Homo sapiens) [compound 33] | ″++″ (≧20% = ++)

Row | Substance | Peptide exchange
26 | 34 (ILVEADSLWVV; listed as Homo sapiens) [compound 34] | ″+++″ (≧50% = +++)
27 | 35 (KINDTIYEV; listed as Homo sapiens) [compound 35] | ″+++″ (≧50% = +++)
28 | 39 (SVAPNLPAV; listed as Homo sapiens) [compound 39] | ″+++″ (≧50% = +++)
29 | 41 (SLMPHIPGL; listed as Homo sapiens) [compound 41] | ″+++″ (≧50% = +++)
30 | 42 (VLLQKIVSA; listed as Homo sapiens) [compound 42] | ″+++″ (≧50% = +++)
31 | 43 (VLSSLEINI; listed as Homo sapiens) [compound 43] | ″++″ (≧20% = ++)
32 | 44 (ILDPISSGFLL; listed as Homo sapiens) [compound 44] | ″++″ (≧20% = ++)
33 | 45 (SLWQDIPDV; listed as Homo sapiens) [compound 45] | ″+++″ (≧50% = +++)
34 | 46 (ILTEENIHL; listed as Homo sapiens) [compound 46] | ″+++″ (≧50% = +++)
35 | 47 (ILLSVPLLVV; listed as Homo sapiens) [compound 47] | ″++″ (≧20% = ++)
36 | 50 (SLSELEALM; listed as Homo sapiens) [compound 50] | ″+++″ (≧50% = +++)
37 | 51 (LLPDLEFYV; listed as Homo sapiens) [compound 51] | ″++++″ (≧75% = ++++)
38 | 52 (FLLAHGLGFLL; listed as Homo sapiens) [compound 52] | ″++++″ (≧75% = ++++)
39 | 53 (KMIETDILQKV; listed as Homo sapiens) [compound 53] | ″++++″ (≧75% = ++++)
40 | 54 (SLLEQGKEPWMV; listed as Homo sapiens) [compound 54] | ″+++″ (≧50% = +++)
41 | 55 (SLLDLETLSL; listed as Homo sapiens) [compound 55] | ″++++″ (≧75% = ++++)
42 | 57 (TLAELQPPVQL; listed as Homo sapiens) [compound 57] | ″+++″ (≧50% = +++)
43 | 59 (IMEDIILTL; listed as Homo sapiens) [compound 59] | ″+++″ (≧50% = +++)
44 | 62 (VLLDVSAGQLLM; listed as Homo sapiens) [compound 62] | ″++++″ (≧75% = ++++)
45 | 63 (YLLPSGGSVTL; listed as Homo sapiens) [compound 63] | ″++″ (≧20% = ++)
46 | 64 (YAAPGGLIGV; listed as Homo sapiens) [compound 64] | ″++″ (≧20% = ++)
47 | 66 (FLDENIGGVAV; listed as Homo sapiens) [compound 66] | ″+++″ (≧50% = +++)
48 | 67 (TLLAEALVTV; listed as Homo sapiens) [compound 67] | ″+++″ (≧50% = +++)
49 | 68 (SLMELPRGLFL; listed as Homo sapiens) [compound 68] | ″++++″ (≧75% = ++++)
50 | 69 (FQLDPSSGVLVTV; listed as Homo sapiens) [compound 69] | ″+++″ (≧50% = +++)

Row | Substance | Peptide exchange
51 | 70 (GLLDYPVGV; listed as Homo sapiens) [compound 70] | ″+++″ (≧50% = +++)
52 | 71 (GILARIASV; listed as Homo sapiens) [compound 71] | ″+++″ (≧50% = +++)
53 | 72 (SLLELDGINL; listed as Homo sapiens) [compound 72] | ″+++″ (≧50% = +++)
54 | 73 (NIFDLQIYV; listed as Homo sapiens) [compound 73] | ″+++″ (≧50% = +++)
55 | 74 (ALLDPEVLSIFV; listed as Homo sapiens) [compound 74] | ″+++″ (≧50% = +++)
56 | 75 (GLLEVMVNL; listed as Homo sapiens) [compound 75] | ″+++″ (≧50% = +++)
57 | 76 (ILIDSIYKV; listed as Homo sapiens) [compound 76] | ″+++″ (≧50% = +++)
58 | 77 (ILVEADGAWVV; listed as Homo sapiens) [compound 77] | ″++++″ (≧75% = ++++)
59 | 78 (SLFSSLEPQIQPV; listed as Homo sapiens) [compound 78] | ″+++″ (≧50% = +++)
60 | 80 (FLYDNLVESL; listed as Homo sapiens) [compound 80] | ″++″ (≧20% = ++)
61 | 81 (FLFSQLQYL; listed as Homo sapiens) [compound 81] | ″++″ (≧20% = ++)
62 | 82 (FLSSVTYNL; listed as Homo sapiens) [compound 82] | ″+++″ (≧50% = +++)
63 | 83 (ILAPTVMMI; listed as Homo sapiens) [compound 83] | ″+++″ (≧50% = +++)
64 | 84 (VTFGEKLLGV; listed as Homo sapiens) [compound 84] | ″++″ (≧20% = ++)
65 | 85 (KMSELRVTL; listed as Homo sapiens) [compound 85] | ″+++″ (≧50% = +++)
66 | 86 (NLIGKIENV; listed as Homo sapiens) [compound 86] | ″+++″ (≧50% = +++)
67 | 87 (ALPEAPAPLLPHIT; listed as Homo sapiens) [compound 87] | ″++″ (≧20% = ++)
68 | 88 (FLLVGDLMAV; listed as Homo sapiens) [compound 88] | ″+++″ (≧50% = +++)
69 | 89 (YILPTETIYV; listed as Homo sapiens) [compound 89] | ″++++″ (≧75% = ++++)
70 | 90 (TLLQIIETV; listed as Homo sapiens) [compound 90] | ″+++″ (≧50% = +++)
71 | 91 (IMQDFPAEIFL; listed as Homo sapiens) [compound 91] | ″++++″ (≧75% = ++++)
72 | 92 (YLIPFTGIVGL; listed as Homo sapiens) [compound 92] | ″++″ (≧20% = ++)
73 | 93 (LLQAIKLYL; listed as Homo sapiens) [compound 93] | ″++″ (≧20% = ++)

Reference: patent US20170037111A1, “Novel peptides and combination of peptides for use in immunotherapy against ovarian cancer and other cancers” (immatics biotechnologies GmbH, priority 2015, published 2017)
